Data published in patent publication US20220306744A1 (CRESCENDO BIOLOGICS, published 2022).
Changes are numbered by the printed parent chain.

B1: 1.2b (VHH)
VHH: EVQLLESGGGLVKPGGSLRLSCAASGFTFSDYTMTWMRQAPGKGLEWVSYISTGGSIKYYTDSVKGRFTISRDNAKNSLYLQMNSLRADDTAVYYCAREAPLRLGESPHDAFDIWGQGTMVTVSS
B2: 1.8b (VHH)
VHH: B1 VHH with L5V, D89G
B3: 1.39b (VHH)
VHH: B1 VHH with E1Q, L5Q
B4: 1.53b (VHH)
VHH: B1 VHH with E1Q, L5V, Y32N, T33S, T53S, I57V, Y59F, T61A
B5: 1.64b (VHH)
VHH: B1 VHH with L5V, Y32S, T33S, T53S, S56G, I57V, Y59F, T61A, W115S
notes: also called Humabody 1.64b
B6: 1.62b (VHH)
VHH: B1 VHH with E1Q, L5V, Y32S, T33S, T53S, S56A, I57V, Y59F, W115S
B7: 1.63b (VHH)
VHH: B1 VHH with L5V, Y32S, T33S, T53S, S56G, I57V, Y59F, W115S
B8: 1.65b (VHH)
VHH: B1 VHH with E1Q, L5V, Y32S, T33S, T53S, S56G, I57V, Y59F, T61A, W115S
B9: 1.45b (VHH)
VHH: B1 VHH with E1Q, L5V, T33S, T35S, T53S, S56G, I57V, K58I, Y59F, T61A
B10: 1.32b (VHH)
VHH: QVTLKESGGGLVKPGGSLRLSCAASGFTFSDDYMMWIRQAPGKGLEWVSYISSGGSIIYYADSVKGRFTISRDNAKNSLYLQMNSLRAEDTAVYYCAREAPLRLGESPHDAFDIRGQGTMVTVSS
B11: 1.42b (VHH)
VHH: B1 VHH with E1Q, L5V, Y32N, T33S, T53S, S56G, I57V, Y59F, T61A
B12: 1.56b (VHH)
VHH: B1 VHH with E1Q, L5V, Y32N, T33S, T53S, S56A, I57V, Y59F, T61A, W115L
B13: 1.59b (VHH)
VHH: B1 VHH with E1Q, L5V, Y32N, T33S, T35S, T53S, I57V, Y59F, T61A
B14: 1.52b (VHH)
VHH: B1 VHH with E1Q, L5V, Y32N, T33S, T53S, S56G, I57V, T61A
B15: 1.23b (VHH)
VHH: B1 VHH with E1Q, V2I, Q3T, L5K, T35S, S56T
B16: 1.50b (VHH)
VHH: B1 VHH with E1Q, L5V, Y32N, T33S, T53S, S56T, Y59F, T61A
B17: 1.69b (VHH)
VHH: QVQLVESGGGLVKPGGSLRLSCAASGFTFSDNSMSWMRQAPGKGLEWVSYISSGGGVIFYADSVKGRFTISRDNAKNSLYLQMNSLRADDTAVYYCAREAPLRLGESPHDAFDISGQGTMVTVSS
B18: 1.30b (VHH)
VHH: B1 VHH with E1Q, Q3T, L5K, K76R, D89E
B19: 1.29b (VHH)
VHH: B1 VHH with E1Q, Q3T, L5K, T35S, S56T
B20: 1.55b (VHH)
VHH: B17 VHH with S35T, I58K
B21: 1.49b (VHH)
VHH: B17 VHH with N32S, S53T, I58K, S115W
B22: 1.71b (VHH)
VHH: B17 VHH with S30G, D31G, N32S, S35T, I58K, A61T
B23: 1.60b (VHH)
VHH: B17 VHH with S35T, S53T, I58K, F59Y, S115W
B24: 1.4b (VHH)
VHH: B1 VHH with E1Q, L5V, T33Y, T35I, T53G, S56T, I57T, S107T
B25: 1.36b (VHH)
VHH: B1 VHH with L5V, S56T, Y80F
B26: 1.21b (VHH)
VHH: B1 VHH with L5V, I114T
B27: 1.66b (VHH)
VHH: B17 VHH with N32S, S35T, I58K, A61T, N84D, I114T
B28: 1.11b (VHH)
VHH: B1 VHH with T33D, M37I, L45Q, T53R, I57T, T61A, D89E, S107T
B29: 1.27b (VHH)
VHH: B1 VHH with E1Q, Q3T, L5K
B30: 1.74b (VHH)
VHH: B17 VHH with Q1E, N32S, S35T, M37I, I58K, A61T
B31: 1.43b (VHH)
VHH: B17 VHH with N32S, S35T, S115W
B32: 1.68b (VHH)
VHH: B17 VHH with S30G, S35T, Q117R, M120T
B33: 1.31b (VHH)
VHH: B1 VHH with E1Q, Q3T, L5K, I57T
B34: 1.35b (VHH)
VHH: B1 VHH with A88V
B35: 1.70b (VHH)
VHH: B17 VHH with S30G, N32S, S35T, G56A, I58K, A61T
B36: 1.72b (VHH)
VHH: B17 VHH with N32S
B37: 1.54b (VHH)
VHH: B17 VHH with N32D, S35T, S115W
B38: 1.9b (VHH)
VHH: B1 VHH with E1Q, L5V, S30G, S56T, N84D
B39: 1.16b (VHH)
VHH: B1 VHH with L5V, T35S
B40: 1.48b (VHH)
VHH: B17 VHH with N32S, S35T, I58K, S115W
B41: 1.17b (VHH)
VHH: B1 VHH with L5V, A88V
B42: 1.20b (VHH)
VHH: B1 VHH with T53S, Y59F, T61A, D89E
B43: 1.58b (VHH)
VHH: B17 VHH with S33T, S35T, S53T, I58K, S115W
B44: 1.22b (VHH)
VHH: B1 VHH with L5V
B45: 1.47b (VHH)
VHH: B17 VHH with S115W
B46: 1.73b (VHH)
VHH: B17 VHH with S25T, N32S, S35T, S53A, I58R, A61T
B47: 1.37b (VHH)
VHH: B1 VHH with E1Q, L5V, Y80F
B48: 1.19b (VHH)
VHH: B1 VHH with E1Q, L5V, D89E, S107T
B49: 1.3b (VHH)
VHH: B1 VHH with E1Q, L5V
B50: 1.46b (VHH)
VHH: B17 VHH with N32S, S115W
B51: 1.5b (VHH)
VHH: B1 VHH with L5V, S56N, I57T
B52: 1.34b (VHH)
VHH: B1 VHH with L5V, I57V
B53: 1.10b (VHH)
VHH: B1 VHH with E1Q, L5V, T35S, V48I, T53L, S56N, I57T
B54: 1.44b (VHH)
VHH: B17 VHH with S35T, G56A, I58K, S115W
B55: 1.51b (VHH)
VHH: B17 VHH with N32S, S35T, G56A, I58K, A61T, S115W
B56: 1.6b (VHH)
VHH: B1 VHH with S56T, N84S
B57: 1.67b (VHH)
VHH: B17 VHH with D31G, N32S, S35T

Target: T1, human PD-1 expressed on cells (CHO TREX human PD1 cell line, full-length human PD-1 sequence) (human, UniProt Q15116 21-288)
T1 construct: Also used for human PD-1 on Jurkat reporter cells, on PathHunter cells and on PHA-stimulated human CD4+ T cells; also called CHO human PD1 cells; CHO human PD-1 cells
Experiment: worded summary of the screens

T1 sequence (Q15116 21-288): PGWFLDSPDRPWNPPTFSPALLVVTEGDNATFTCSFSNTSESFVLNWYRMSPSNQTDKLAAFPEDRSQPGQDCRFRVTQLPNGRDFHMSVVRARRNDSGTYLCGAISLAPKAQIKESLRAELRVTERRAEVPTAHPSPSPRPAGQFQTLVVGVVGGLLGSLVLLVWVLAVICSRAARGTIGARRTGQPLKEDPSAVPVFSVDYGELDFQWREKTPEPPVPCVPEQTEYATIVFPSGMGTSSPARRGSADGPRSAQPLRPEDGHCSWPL

Row | binding result | Binder
1 | binds | B1
2 | binds | B2
3 | binds | B3
4 | binds | B4
5 | binds | B5
6 | binds | B6
7 | binds | B7
8 | binds | B8
9 | binds | B9
10 | binds | B10
11 | binds | B11
12 | binds | B12
13 | binds | B13
14 | binds | B14
15 | binds | B15
16 | binds | B16
17 | binds | B17
18 | binds | B18
19 | binds | B19

Row | binding result | Binder
20 | binds | B20
21 | binds | B21
22 | binds | B22
23 | binds | B23
24 | binds | B24
25 | binds | B25
26 | binds | B26
27 | binds | B27
28 | binds | B28
29 | binds | B29
30 | binds | B30
31 | binds | B31
32 | binds | B32
33 | binds | B33
34 | binds | B34
35 | binds | B35
36 | binds | B36
37 | binds | B37
38 | binds | B38

Row | binding result | Binder
39 | binds | B39
40 | binds | B40
41 | binds | B41
42 | binds | B42
43 | binds | B43
44 | binds | B44
45 | binds | B45
46 | binds | B46
47 | binds | B47
48 | binds | B48
49 | binds | B49
50 | binds | B50
51 | binds | B51
52 | binds | B52
53 | binds | B53
54 | binds | B54
55 | binds | B55
56 | binds | B56
57 | binds | B57
